B1: GpH7-A5/GpH7-B3 variant P329_01G/GpL16-k0 (antibody, human IgG1, kappa)
heavy 1: not shown
heavy 2: not shown
light: DIVMTQSPLSLPVTPGEPASISCQASESLVHSNRNTYLHWYLQKPGQSPQLLIYKVSNRFSGVPDRFSGSGSGTDFTLKISRVEAEDVGVYYCSQNTHVPPTFGQGTKVEIERTVAAPSVFIFPPSDEQLKSGTASVVCLLNNFYPREAKVQWKVDNALQSGNSQESVTEQDSKDSTYSLSSTLTLSKADYEKHKVYACEVTHQGLSSPVTKSFNRGEC
notes: mutation in one H chain only; also called He Ab P329_01G; P329G
B2: GpH7-A5/GpH7-B3 variant Q295_07I/GpL16-k0 (antibody, human IgG1, kappa)
heavy 1: not shown
heavy 2: not shown
light: DIVMTQSPLSLPVTPGEPASISCQASESLVHSNRNTYLHWYLQKPGQSPQLLIYKVSNRFSGVPDRFSGSGSGTDFTLKISRVEAEDVGVYYCSQNTHVPPTFGQGTKVEIERTVAAPSVFIFPPSDEQLKSGTASVVCLLNNFYPREAKVQWKVDNALQSGNSQESVTEQDSKDSTYSLSSTLTLSKADYEKHKVYACEVTHQGLSSPVTKSFNRGEC
notes: mutation in one H chain only; also called He Ab Q295_07I; Q295I
B3: GpH7-A5/GpH7-B3 variant Q295_14T/GpL16-k0 (antibody, human IgG1, kappa)
heavy 1: not shown
heavy 2: not shown
light: DIVMTQSPLSLPVTPGEPASISCQASESLVHSNRNTYLHWYLQKPGQSPQLLIYKVSNRFSGVPDRFSGSGSGTDFTLKISRVEAEDVGVYYCSQNTHVPPTFGQGTKVEIERTVAAPSVFIFPPSDEQLKSGTASVVCLLNNFYPREAKVQWKVDNALQSGNSQESVTEQDSKDSTYSLSSTLTLSKADYEKHKVYACEVTHQGLSSPVTKSFNRGEC
notes: mutation in one H chain only; also called He Ab Q295_14T; Q295T
B4: GpH7-A5/GpH7-B3 variant P329_02A/GpL16-k0 (antibody, human IgG1, kappa)
heavy 1: not shown
heavy 2: not shown
light: DIVMTQSPLSLPVTPGEPASISCQASESLVHSNRNTYLHWYLQKPGQSPQLLIYKVSNRFSGVPDRFSGSGSGTDFTLKISRVEAEDVGVYYCSQNTHVPPTFGQGTKVEIERTVAAPSVFIFPPSDEQLKSGTASVVCLLNNFYPREAKVQWKVDNALQSGNSQESVTEQDSKDSTYSLSSTLTLSKADYEKHKVYACEVTHQGLSSPVTKSFNRGEC
notes: mutation in one H chain only; also called He Ab P329_02A; P329A
B5: GpH7-A5/GpH7-B3 variant Q295_18N/GpL16-k0 (antibody, human IgG1, kappa)
heavy 1: not shown
heavy 2: not shown
light: DIVMTQSPLSLPVTPGEPASISCQASESLVHSNRNTYLHWYLQKPGQSPQLLIYKVSNRFSGVPDRFSGSGSGTDFTLKISRVEAEDVGVYYCSQNTHVPPTFGQGTKVEIERTVAAPSVFIFPPSDEQLKSGTASVVCLLNNFYPREAKVQWKVDNALQSGNSQESVTEQDSKDSTYSLSSTLTLSKADYEKHKVYACEVTHQGLSSPVTKSFNRGEC
notes: mutation in one H chain only; also called He Ab Q295_18N; Q295N
B6: GpH7-A5/GpH7-B3 variant Q295_13S/GpL16-k0 (antibody, human IgG1, kappa)
heavy 1: not shown
heavy 2: not shown
light: DIVMTQSPLSLPVTPGEPASISCQASESLVHSNRNTYLHWYLQKPGQSPQLLIYKVSNRFSGVPDRFSGSGSGTDFTLKISRVEAEDVGVYYCSQNTHVPPTFGQGTKVEIERTVAAPSVFIFPPSDEQLKSGTASVVCLLNNFYPREAKVQWKVDNALQSGNSQESVTEQDSKDSTYSLSSTLTLSKADYEKHKVYACEVTHQGLSSPVTKSFNRGEC
notes: mutation in one H chain only; also called He Ab Q295_13S; Q295S
B7: GpH7-A5/GpH7-B3 variant Q295_05P/GpL16-k0 (antibody, human IgG1, kappa)
heavy 1: not shown
heavy 2: not shown
light: DIVMTQSPLSLPVTPGEPASISCQASESLVHSNRNTYLHWYLQKPGQSPQLLIYKVSNRFSGVPDRFSGSGSGTDFTLKISRVEAEDVGVYYCSQNTHVPPTFGQGTKVEIERTVAAPSVFIFPPSDEQLKSGTASVVCLLNNFYPREAKVQWKVDNALQSGNSQESVTEQDSKDSTYSLSSTLTLSKADYEKHKVYACEVTHQGLSSPVTKSFNRGEC
notes: mutation in one H chain only; also called He Ab Q295_05P; Q295P
B8: GpH7-A5/GpH7-B3 variant Q295_09D/GpL16-k0 (antibody, human IgG1, kappa)
heavy 1: not shown
heavy 2: not shown
light: DIVMTQSPLSLPVTPGEPASISCQASESLVHSNRNTYLHWYLQKPGQSPQLLIYKVSNRFSGVPDRFSGSGSGTDFTLKISRVEAEDVGVYYCSQNTHVPPTFGQGTKVEIERTVAAPSVFIFPPSDEQLKSGTASVVCLLNNFYPREAKVQWKVDNALQSGNSQESVTEQDSKDSTYSLSSTLTLSKADYEKHKVYACEVTHQGLSSPVTKSFNRGEC
notes: mutation in one H chain only; also called He Ab Q295_09D; Q295D
B9: GpH7-A5/GpH7-B3 variant Q295_08L/GpL16-k0 (antibody, human IgG1, kappa)
heavy 1: not shown
heavy 2: not shown
light: DIVMTQSPLSLPVTPGEPASISCQASESLVHSNRNTYLHWYLQKPGQSPQLLIYKVSNRFSGVPDRFSGSGSGTDFTLKISRVEAEDVGVYYCSQNTHVPPTFGQGTKVEIERTVAAPSVFIFPPSDEQLKSGTASVVCLLNNFYPREAKVQWKVDNALQSGNSQESVTEQDSKDSTYSLSSTLTLSKADYEKHKVYACEVTHQGLSSPVTKSFNRGEC
notes: mutation in one H chain only; also called He Ab Q295_08L; Q295L
B10: GpH7-A5/GpH7-B3 variant Q295_16H/GpL16-k0 (antibody, human IgG1, kappa)
heavy 1: not shown
heavy 2: not shown
light: DIVMTQSPLSLPVTPGEPASISCQASESLVHSNRNTYLHWYLQKPGQSPQLLIYKVSNRFSGVPDRFSGSGSGTDFTLKISRVEAEDVGVYYCSQNTHVPPTFGQGTKVEIERTVAAPSVFIFPPSDEQLKSGTASVVCLLNNFYPREAKVQWKVDNALQSGNSQESVTEQDSKDSTYSLSSTLTLSKADYEKHKVYACEVTHQGLSSPVTKSFNRGEC
notes: mutation in one H chain only; also called He Ab Q295_16H; Q295H
B11: GpH7-A5/GpH7-B3 variant Q295_11K/GpL16-k0 (antibody, human IgG1, kappa)
heavy 1: not shown
heavy 2: not shown
light: DIVMTQSPLSLPVTPGEPASISCQASESLVHSNRNTYLHWYLQKPGQSPQLLIYKVSNRFSGVPDRFSGSGSGTDFTLKISRVEAEDVGVYYCSQNTHVPPTFGQGTKVEIERTVAAPSVFIFPPSDEQLKSGTASVVCLLNNFYPREAKVQWKVDNALQSGNSQESVTEQDSKDSTYSLSSTLTLSKADYEKHKVYACEVTHQGLSSPVTKSFNRGEC
notes: mutation in one H chain only; also called He Ab Q295_11K; Q295K
B12: GpH7-A5/GpH7-B3 variant Q295_15Y/GpL16-k0 (antibody, human IgG1, kappa)
heavy 1: not shown
heavy 2: not shown
light: DIVMTQSPLSLPVTPGEPASISCQASESLVHSNRNTYLHWYLQKPGQSPQLLIYKVSNRFSGVPDRFSGSGSGTDFTLKISRVEAEDVGVYYCSQNTHVPPTFGQGTKVEIERTVAAPSVFIFPPSDEQLKSGTASVVCLLNNFYPREAKVQWKVDNALQSGNSQESVTEQDSKDSTYSLSSTLTLSKADYEKHKVYACEVTHQGLSSPVTKSFNRGEC
notes: mutation in one H chain only; also called He Ab Q295_15Y; Q295Y
B13: GpH7-A5/GpH7-B3 variant Q295_04F/GpL16-k0 (antibody, human IgG1, kappa)
heavy 1: not shown
heavy 2: not shown
light: DIVMTQSPLSLPVTPGEPASISCQASESLVHSNRNTYLHWYLQKPGQSPQLLIYKVSNRFSGVPDRFSGSGSGTDFTLKISRVEAEDVGVYYCSQNTHVPPTFGQGTKVEIERTVAAPSVFIFPPSDEQLKSGTASVVCLLNNFYPREAKVQWKVDNALQSGNSQESVTEQDSKDSTYSLSSTLTLSKADYEKHKVYACEVTHQGLSSPVTKSFNRGEC
notes: mutation in one H chain only; also called He Ab Q295_04F; Q295F
B14: GpH7-A5/GpH7-B3 variant S239_01G/GpL16-k0 (antibody, human IgG1, kappa)
heavy 1: not shown
heavy 2: not shown
light: DIVMTQSPLSLPVTPGEPASISCQASESLVHSNRNTYLHWYLQKPGQSPQLLIYKVSNRFSGVPDRFSGSGSGTDFTLKISRVEAEDVGVYYCSQNTHVPPTFGQGTKVEIERTVAAPSVFIFPPSDEQLKSGTASVVCLLNNFYPREAKVQWKVDNALQSGNSQESVTEQDSKDSTYSLSSTLTLSKADYEKHKVYACEVTHQGLSSPVTKSFNRGEC
notes: mutation in one H chain only; also called He Ab S239_01G; S239G
B15: GpH7-A5/GpH7-B3 variant Q295_03V/GpL16-k0 (antibody, human IgG1, kappa)
heavy 1: not shown
heavy 2: not shown
light: DIVMTQSPLSLPVTPGEPASISCQASESLVHSNRNTYLHWYLQKPGQSPQLLIYKVSNRFSGVPDRFSGSGSGTDFTLKISRVEAEDVGVYYCSQNTHVPPTFGQGTKVEIERTVAAPSVFIFPPSDEQLKSGTASVVCLLNNFYPREAKVQWKVDNALQSGNSQESVTEQDSKDSTYSLSSTLTLSKADYEKHKVYACEVTHQGLSSPVTKSFNRGEC
notes: mutation in one H chain only; also called He Ab Q295_03V; Q295V

T1 sequence (P12314 16-292): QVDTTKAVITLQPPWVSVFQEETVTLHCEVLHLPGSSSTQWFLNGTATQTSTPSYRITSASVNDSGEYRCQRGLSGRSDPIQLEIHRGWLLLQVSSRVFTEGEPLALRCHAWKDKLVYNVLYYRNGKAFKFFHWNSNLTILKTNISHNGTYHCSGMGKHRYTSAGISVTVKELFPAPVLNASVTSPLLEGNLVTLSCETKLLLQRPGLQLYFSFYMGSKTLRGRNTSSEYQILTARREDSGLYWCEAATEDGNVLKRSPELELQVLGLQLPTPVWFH

This assay addresses T1, FcγRIa extracellular domain with C-terminal His tag (human, UniProt P12314 16-292).
T1 construct: extracellular domain; also called FcgRI; CD64; not shown: His tag at the C terminus
The assay is described as follows: SPR Biacore, relative FcγRIa binding vs GpH7-A5/GpH7-B3/GpL16-k0. (Surface plasmon resonance follows binding to a sensor surface in real time, without labels.)
On to B1, for which the He/Con_1a is 101 % of HeCon Ab (=100).
For B2, the He/Con_1a was 103 % of HeCon Ab (=100).
For B3 the value was 103 % of HeCon Ab (=100); for B4, 102 % of HeCon Ab (=100); for B5, 102 % of HeCon Ab (=100).
For B6 the value was 102 % of HeCon Ab (=100); for B7, 103 % of HeCon Ab (=100).
As for B8, the He/Con_1a was 100 % of HeCon Ab (=100).
For B9 the value was 105 % of HeCon Ab (=100); for B10, 102 % of HeCon Ab (=100).
For B11 the value was 101 % of HeCon Ab (=100); for B12, 102 % of HeCon Ab (=100); for B13, 102 % of HeCon Ab (=100).
For B14 the value was 101 % of HeCon Ab (=100); for B15, 104 % of HeCon Ab (=100).

The values are drawn from patent publication US20180155451A1 (published 2018).
